Laboratory results published in the supplement of paper PMC9170038.

Legend:
MS2 coat protein [1] = experiment: apparent KD of MS2 coat protein, switch ON state; designed switch direction (-1 OFF switch, 1 ON switch): 1; higher = weaker reporter binding; conditions: FMN input: 0 or 200 uM; Eterna round: R93 (includes R88 designs)
In short: (§1)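 Normalised binding curves from single clusters were fitted, and the median fit for each design is given as apparent KD. The clusters held designed RNA switches transcribed on-chip from Illumina sequencing clusters. These were titrated with SNAP-549-labelled MS2 coat protein (twofold steps from 0.7 or 1.5 nM to 3 µM, 0.8–1.5 h to 10–20 min per step) in 100 mM Tris-HCl pH 7.5, 80 mM KCl, 4 mM MgCl2, without or with constant ligand.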

MS2 coat protein [2] = experiment: apparent KD of MS2 coat protein, switch OFF state (with FMN for OFF switches, without FMN for ON switches); designed switch direction (-1 OFF switch, 1 ON switch): 1; higher = weaker reporter binding; conditions: FMN input: 0 or 200 uM; Eterna round: R93 (includes R88 designs)
In short: as §1

Row | Sequence | apparent KD of MS2 coat protein (MS2 coat protein [1]) [nM] | apparent KD of MS2 coat protein (MS2 coat protein [2]) [nM]
1 | AAAAAAAAAAGGCAGGAUAUCCAAAAAAAAACAUGAGGAUCACCCAUGUAAAAAAAAAAAAAAUGGGAGAAGGGCCAAAAAAAAAA [Mat - Mod of Eli] | 24.9 | 46.3
2 | AAAAAACAUGAGGAUCACCCAUGUAAAAAAAACGCAGGAUAUCCCUUUUUUAAAUGGGAGGGAGAAGGGUGAAAAA [Nob's Hobby 13 - Jieux - Same State 1] | 22.4 | 43.8
3 | AAAAAACAUGAGGAUCACCCAUGUAAAAAAAUGGGAGGAUAUAUGAAAAAAAAAAAAAAAAUAGAAGGCCUGAAAA [same state 11] | 399 | 64.2
4 | AAAAAACAUGAGGAUCACCCAUGUAAAAAUAUGGGAGGAUAUUCAAACACGAAAGUGAAAGAAGAAGGCCUAAAAA [SS! MT 18] | 15 | 139
5 | AAAAAACAUGAGGAUCACCCAUGUAAAUCUCAUGUAGGAUAUACAAAAAAAAAAAAAAAAGUAGAAGGACAAAAAA [Omei A variation 5] | 125 | 75.2
6 | AAAAAACAUGAGGAUCACCCAUGUCAAAAGACGUGAGGAUAUGUACAGACUUCGGUCUGUACAGAAGGCACGAAAA [SS1 - 1037] | 12.9 | 20.1
7 | AAAAAACAUGAGGAUCACCCAUGUCCUCGGACGUGAGGAUAUGUACAGACUUCGGUCUGUACAGAAGGCACGAAAA [SS1 - 1036] | 503 | 319
8 | AAAAAACAUGAGGAUCACCCAUGUGAAAAAAACGCAGGAUAUCCCUUUUUUAAAUGGGAGGGAGAAGGGUGAAAAA [Nob's Hobby 14 - Jieux - Same State 1] | 36.3 | 45.9
9 | AAAAAACAUGAGGAUCACCCAUGUGCAAAAUUCGCAGGAUAUCCCUUUUUUAAAUGGGAGGGAGAAGGGUGUAAAA [Nob's Hobby 18 - Jieux - Same State 1] | 27.1 | 47.4
10 | AAAAAACAUGAGGAUCACCCAUGUGCAAAAUUCGCAGGAUAUUUUUCUUUUAAAUGAGAGGGAGAAGGGUGUAAAA [Nob's Hobby 23 - Jieux - Same State 1] | 21.6 | 22.1
11 | AAAAAACAUGAGGAUCACCCAUGUGCAAAAUUCGCAGGAUAUUUUUUUUUUAAAUGAGAGGGAGAAGGGUGUAAAA [Nob's Hobby 22 - Jieux - Same State 1] | 27.4 | 33
12 | AAAAAAUAAAAAAAGGAUAUAAAUGCUAGAACAUGAGGAUCACCCAUGUACUAGCAAAAAAUAAAAAAGAAGGAAAAAUAAAAAA [SS2: MS2 18] | 15.6 | 14.8
13 | AAAAAGGAGAGAGAGGAUAUCCAAAGGAAAACAUGAGGAUCACCCAUGUAAAAGGUAGGAAAUUGGGAGAAGGCUCAAGAGAGAG [salish99-ss2-107] | 17.6 | 36.5
14 | AAAACACAUGAGGAUCACCCAUGUAAAAACAUGAGAGGAUAUGCAUGAAAAACAUGCUAUGCAGAAGGCUCAUGUG [SS1 - 1] | 20.9 | 27.2
15 | AAAAGACAUGAGGAUCACCCAUGUAAAAACGUAGGAGGAUAUGUCUGGAAAACAUGCUGGACAGAAGGCCUGUGUC [SS1 - 29] | 17.6 | 25.2
16 | AAAAGACAUGAGGAUCACCCAUGUAAAGACAUAGGAGGAUAUGUCGUGAAAAAAGACUUGGCAGAAGGCCUUUGUC [SS1 - 46] | 21 | 25.6
17 | AAAAGACAUGAGGAUCACCCAUGUCAAAACGUGGGAGGAUAUGCAUGGAAAACAUGCUGUGCAGAAGGCCCGUGUC [SS1 - 21] | 27.5 | 46.4

Row | Sequence | apparent KD of MS2 coat protein (MS2 coat protein [1]) [nM] | apparent KD of MS2 coat protein (MS2 coat protein [2]) [nM]
18 | AAAAGGCUAAACUAGGAUAUGGGUGUCUAAACAUGAGGAUCACCCAUGUGAUGGCAAAACAAAGCUCAGAAGGAGUGGUAGCCCA [Riquceri] | 12.4 | 56.7
19 | AAAAGGGCGACACAGGAUAUGUUGACUCUAACAUGAGGAUCACCCAUGUGCGUUUAGGGUCGUGCGCAGAAGGGUGUAGCUCGGA [Orvele] | 12.9 | 24.1
20 | AAAAUAAAAUAAAAGGAUAUAAAAUAAAAUACAUGAGGAUCACCCAUGUAUAAAAUAAAAAAAUAAAAGAAGGAAUAAAAAUAAA [SS2 504: MS2 4] | 16.4 | 11.2
21 | AAAAUACAUGAGGAUCACCCAUGUCCGACAAAUCAAGGAUAUGAUAGCCAAACCAGGCUGUUAGAAGGUGAAAGAA [Esesrien] | 260 | 151
22 | AAACCACAUGAGGAUCACCCAUGUGAAAUACACAUAGGAUAUGCGAAAAGAAACAAAGAAGCAGAAGGGUGAAAAA [75%, Ex sub1, 17] | 35.4 | 41.3
23 | AAAGACAUGGUGCAGGAUAUAUUAAUAGUCACAUGAGGAUCACCCAUGUUCAUAUAUAUGAACGAGUAGAAGGGCGAUGAAAAAA [SameState2 Malc#6] | 98 | 90.8
24 | AAAUAAAAAAAAAAGGAUAUUCAUGUAAAAACAUGAGGAUCACCCAUGUAAAAAAAUAAAAAUAAAAAGAAGGAAAAAUAAAAAA [SS2: 85 No MS2] | 77.1 | 164
25 | AAAUAAAGGACUAAGGAUAUAUCGCAUGACACAUGAGGAUCACCCAUGUGGUAACACAGAGGGUGAUAGAAGGUAGUCCACAAACA [Pariah 6 (MS2 Riboswitches - Same State 2)] | 42.8 | 287
26 | AAAUAAAUGACUAAGGAUAUAUCGGAGAAAACAUGAGGAUCACCCAUGUAAUAAUAAAAAGGGUGAUAGAAGGUAGUCAACAAAC [Mod 1 of Pariah 4 by Hyphema in Round 1] | 37.3 | 63.6
27 | AAAUAAAUGACUCAGGAUAUAUCAUAGAGUACAUGAGGAUCACCCAUGUUUUAAUAACAUGUUUGGUAGAAGGGAGUCAAUAAAU [LROPPY Same State 2 - v06_deltaG=1.99] | 25.8 | 127
28 | AAAUAACAUGAGGAUCACCCAUGUUGCAGCGGUUGAGGAUAUGUGGGUGAAAAUAGCAUGGCAGAAGGCGAGUGUA [SameState1 Malc#26] | 71.3 | 71.9
29 | AACAAUCUAUCUGAGGAUAUCAAAAAAAAAACAUGAGGAUCACCCAUGUCUAGGAAAACUAGAUAUGAGAAGGCAGAUAGAUUGA [SS1 - 593] | 7.93 | 49.6
30 | AACAAUCUAUCUGAGGAUAUCAAGUCAAAGACAUGAGGAUCACCCAUGUGCAGGAAAACUGCACUUGAGAAGGCAGAUAGAUUGA [SS2: 1109] | 12.3 | 9.63
31 | AACAAUCUAUCUGAGGAUAUCAUGUAAAAGACAUGAGGAUCACCCAUGUAGCAGGAAACUGCACAUGAGAAGGCAGAUAGAUUGA [SS2: 1124] | 15.9 | 19.6
32 | AACAAUCUAUCUGAGGAUAUCAUUUCAAAGACAUGAGGAUCACCCAUGUCCAGGAAAACUGGAAAUGAGAAGGCAGAUAGAUUGA [SS2: 1106] | 11.7 | 9.31
33 | AACAAUCUAUCUGAGGAUAUGUGUCGAAAGACAUGAGGAUCACCCAUGUAAAAACAUGGAAAGAUACAGAAGGCAGAUAGAUUGA [SS2: 1157] | 28.4 | 107
